This note sets out measurements from patent US20080241126A1 (XOMA TECHNOLOGY, published 2008).

Residue numbers refer to the chain shown, from its start.

Assay [1] has as its target T1, soluble human Ep-CAM (human, UniProt P16422 24-265).
T1 construct: It was truncated by a stop codon at amino acid position 266 and secreted from CHO-K1 cells (pING1954, Clone 51); No signal peptide limits are stated; Multimers were seen on a non-reduced gel; also called sEp-CAM; truncated Ep-CAM
T1 sequence: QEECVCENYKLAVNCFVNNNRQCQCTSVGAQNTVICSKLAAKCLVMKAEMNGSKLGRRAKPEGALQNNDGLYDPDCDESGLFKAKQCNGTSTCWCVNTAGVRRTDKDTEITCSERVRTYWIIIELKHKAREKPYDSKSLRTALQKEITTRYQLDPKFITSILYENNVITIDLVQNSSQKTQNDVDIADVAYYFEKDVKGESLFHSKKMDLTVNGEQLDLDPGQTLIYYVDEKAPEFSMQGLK
Kind of assay: ELISA, soluble Ep-CAM coated at 0.25 ug/mL, detection with AP-goat anti-human IgG. Background: In an ELISA, binding on a coated surface is turned into a signal by an enzyme label.

Assay [2] has as its target T2, Ep-CAM on the surface of HT-29 human colorectal carcinoma cells (human, UniProt P16422 24-314).
T2 construct: The gene was obtained from HT-29 mRNA; also called epithelial cell adhesion molecule; Ep-CAM expressing HT-29 cells
T2 sequence: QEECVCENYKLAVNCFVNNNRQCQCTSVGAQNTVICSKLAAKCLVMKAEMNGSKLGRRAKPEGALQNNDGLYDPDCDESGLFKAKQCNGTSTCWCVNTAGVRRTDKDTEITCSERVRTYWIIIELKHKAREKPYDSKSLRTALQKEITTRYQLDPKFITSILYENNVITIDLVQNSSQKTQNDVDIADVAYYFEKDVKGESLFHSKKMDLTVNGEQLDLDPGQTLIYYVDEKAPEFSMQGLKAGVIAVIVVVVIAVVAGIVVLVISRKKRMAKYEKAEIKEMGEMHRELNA
Kind of assay: competition with 125I-labeled chimeric ING-1 on HT-29 cells. From the text: Vectors constructed according to Example 1 encoding human engineered ING-1 light and heavy chain genes, for example, pING1937 (low risk human engineered ING-1) and pING1944 (low plus moderate risk human engineered ING-1) were linearized by XbaI and used to transfect serum-free adapted CHO-K1 followed by selection of G418-resistant transfectants. Protein was purified from shake flask culture supernatants by passage over a protein A column. To evaluate the binding activity of the produced immunoglobulin polypeptides, competition binding assays with the human carcinoma cell line HT-29 were performed. This colorectal carcinoma cell line expresses a molecule known as Ep-CAM on its surface. Ep-CAM is recognized by immunoglobulin polypeptides having the antigen binding specificity of the mouse-human chimeric ING-1 antibody produced by cell line HB9812 as produced by ATCC.
HT-29 cells were grown to confluency (˜2×10⁵ cells/well) in 96 well plates. Mouse-human chimeric ING-1 was labeled with Na¹²⁵I (Iodo-gen®, Pierce). The competition conditions included in a 100 μl assay volume, 0.1 nM labeled mouse-human chimeric ING-1, 2-fold serial dilutions of unlabeled immunoglobulin polypeptides, for example, as produced by cells transfected with pING1937 and pING1944. […] Labeled cells were removed with NaOH and counted. […]

The target in assay [3] is T2, Ep-CAM on the surface of HT-29 human …. The experiment in a line: competition with iodinated low risk ING-1 on HT-29 cells (FIG. 17).
The target is the same in assay [4]. Kind of assay: competition binding on HT-29 cells (FIG. 16). How it is done: HT-29 cells were grown to confluency (˜2×10⁵ cells/well) in 96 well plates. Mouse-human chimeric ING-1 was labeled with Na¹²⁵I (Iodo-gen®, Pierce). The competition conditions included in a 100 μl assay volume, 0.1 nM labeled mouse-human chimeric ING-1, 2-fold serial dilutions of unlabeled immunoglobulin polypeptides, for example, as produced by cells transfected with pING1937 and pING1944. The labeled and unlabeled immunoglobulin polypeptides were incubated with HT-29 cells at 4° C. for 5 hours followed by washing. Labeled cells were removed with NaOH and counted. Data analysis was performed using Ligand, [Munson and Redbard, […] 107: 220-239 (1980)].
Human engineered ING-1 modified at the low risk plus moderate risk positions was also evaluated using competition binding assays. No differences in binding between the mouse-human chimeric and the human engineered (low risk) ING-1 was observed.

B1: human engineered (low risk) ING-1 (antibody, human IgG1, kappa)
VL: DIVMTQSALSNPVTLGESGSISCRSSKSLLHSNGITYLYWYLQKPGQSPQLLIYQMSNRASGVPDRFSSSGSGTDFTLKISRVEAEDVGVYYCAQNLELPRTFGQGTKLEMKRTVAAPSVFIFPPSDEQLKSGTASVVCLLNNFYPREAKVQWKVDNALQSGNSQESVTEQDSKDSTYSLSSTLTLSKADYEKHKVYACEVTHQGLSSPVTKSFNRGEC
VH: not shown
notes: It has 6 low risk changes in VL and 13 in VH; also called human engineered ING-1; ING-1(heMab)
Consider B1, for which the binding result in assay [1] and in assay [2] was “binds” each time.

B2: modified ING-1 with low plus moderate risk light chain and low risk heavy chain (antibody, human IgG1, kappa)
VL: B1 VL with A8P, N11L, L15P, S18P
VH: not shown
notes: It is an IgG purified on protein A with human kappa and gamma-1 constant regions; also called low risk heavy chain with a low plus moderate risk light chain
In the case of B2, the binding result in assay [3] was “binds”.

B3: human engineered (low plus moderate risk) ING-1 (antibody, human IgG1, kappa)
VL: B1 VL with A8P, N11L, L15P, S18P
VH: not shown
notes: IgG with human kappa and gamma-1 constant regions, built like pING1937; It has 10 low plus moderate risk changes in VL and 20 in VH; also called product of pING1944
On to B3, for which the binding result in assay [4] is “binds”.

B4: modified ING-1 with low risk light chain and low plus moderate risk heavy chain (antibody, human IgG1, kappa)
VL: B1 VL
VH: not shown
notes: It is an IgG purified on protein A with human kappa and gamma-1 constant regions; also called combination of a low risk light chain with a low plus moderate risk heavy chain
Take B4: in assay [3], the binding result was “binds”.

B5: mouse-human chimeric ING-1 antibody (as produced by cell line HB9812, ATCC) (antibody, human IgG1, kappa, V domains shown)
VH: QIQLVQSGPELKKPGETVKISCKASGYTFTKYGMNWVKQAPGKGLKWMGWINTYTEEPTYGDDFKGRFAFSLETSASTANLQINNLKSEDTATYFCARFGSAVDYWGQGTSVTVSS
VL: DIVMTQAAFSNPVTLGTSGSISCRSSKSLLHSNGITYLYWYLQKPGQSPQLLIYQMSNLASGVPDRFSSSGSGTDFTLRISRVEAEDVGVYYCAQNLELPRTFGGGTKLEMKR
notes: The labelled tracer form was iodinated with Na125I
For B5, the binding result in assay [2] is given as “binds”.
